1 protein from paper PMC3657141, “Directed evolution to re-adapt a co-evolved network within an enzyme” (Journal of Biotechnology, 2012) can be followed below.

Substrate in the data set: CCC=O
Put plainly: purified protein. In kind it is biochemical, Escherichia coli. The conditions noted are these: 50 mM LiHPA, 2.4 mM TPP, 9 mM MgCl2, 250 mM NaCl, 50 mM Tris-HCl, pH 7.0, 21 °C.

B1: transketolase (TK) (Escherichia coli K-12; D469S) (protein)
chain: MSSRKELANAIRALSMDAVQKAKSGHPGAPMGMADIAEVLWRDFLKHNPQNPSWADRDRFVLSNGHGSMLIYSLLHLTGYDLPMEELKNFRQLHSKTPGHPEVGYTAGVETTTGPLGQGIANAVGMAIAEKTLAAQFNRPGHDIVDHYTYAFMGDGCMMEGISHEVCSLAGTLKLGKLIAFYDDNGISIDGHVEGWFTDDTAMRFEAYGWHVIRDIDGHDAASIKRAVEEARAVTDKPSLLMCKTIIGFGSPNKAGTHDSHGAPLGDAEIALTREQLGWKYAPFEIPSEIYAQWDAKEAGQAKESAWNEKFAAYAKAYPQEAAEFTRRMKGEMPSDFDAKAKEFIAKLQANPAKIASRKASQNAIEAFGPLLPEFLGGSADLAPSNLTLWSGSKAINEDAAGNYIHYGVREFGMTAIANGISLHGGFLPYTSTFLMFVEYARNAVRMAALMKQRQVMVYTHDSIGLGESGPTHQPVEQVASLRVTPNMSTWRPCDQVESAVAWKYGVERQDGPTALILSRQNLAQQERTEEQLANIARGGYVLKDCAGQPELIFIATGSEVELAVAAYEKLTAEGVKARVVSMPSTDAFDKQDAAYRESVLPKAVTARVAVEAGIADYWYKYVGLNGAIVGMTTFGESAPAELLFEEFGFTVDNVVAKAKELL
notes: 680 residues; homodimer
In the case of B1, the Km (usually the concentration of substrate that gives half-maximal velocity) came out at 70.8 mM; the kcat – broadly, the number of substrate molecules converted per active site and unit of time at saturation – is 0.952 ± 0.0567 s⁻¹; the kcat/Km (as a rule, the second-order rate constant that governs catalysis at low substrate concentration) was determined as 13.5 ± 0.333 M⁻¹ s⁻¹.
